Experimental data taken from FireProtDB (doi:10.1002/pro.5560040106).

Conditions: Bacillus subtilis (strain 168), pH 7, Urea, CD, Potassium phosphate 10 mM, reversible: yes, whole UniProt chain shown

B1: Phosphocarrier protein HPr wild type, P08877 (protein)
chain: MAQKTFKVTADSGIHARPATVLVQTASKYDADVNLEYNGKTVNLKSIMGVMSLGIAKGAEITISASGADENDALNALEETMKSEGLGE
10 °C
  denaturant m value: 1.04 kcal/mol/M
  denaturant midpoint (higher = more stable): 3.32 M
  unfolding free energy: 3.45 kcal/mol
15 °C
  denaturant m value: 1.06 kcal/mol/M
  denaturant midpoint (higher = more stable): 3.52 M
  unfolding free energy: 3.73 kcal/mol
25 °C
  denaturant m value: 1.08 kcal/mol/M
  denaturant midpoint (higher = more stable): 3.9 M
  unfolding free energy: 4.21 kcal/mol
35 °C
  denaturant m value: 1.05 kcal/mol/M
  denaturant midpoint (higher = more stable): 3.77 M
  unfolding free energy: 3.96 kcal/mol
40 °C
  denaturant m value: 1.04 kcal/mol/M
  denaturant midpoint (higher = more stable): 3.64 M
  unfolding free energy: 3.79 kcal/mol
